Each block holds one binder with its values, some of them ahead of it.
Columns and labels:
MBP-BSU1 = biological target: T1, MBP-BSU1 (Arabidopsis, UniProt Q9LR78 1-793); test: overlay blot with MBP-BSU1 after incubation of GST-BSK1 with GST-BRI1-K
T1 construct: Recombinant fusion used as probe in overlay (far-western) blots and in phosphatase assays; also called BSU1 from E. coli
Method: Total protein extracts obtained from Arabidopsis plants (F1) expressing BSU1 -YFP or co-expressing BSU1-YFP and BSK1-myc were immunoprecipitated with anti-myc, and the immunoblot was probed with anti-GFP and anti-myc antibody. […] GST-BSK1 or GST-BSK1 S230A was incubated with GST-BRI1-K or GST for 2 hrs. […] In the presence of BR (+BR), BR binding to the extracellular domain of BRI1 induces dissociation of BKI1 and association and inter-activation between BRI1 and BAKI. Activated BRI1 then phosphorylates BSK1, which in turn dissociates from the receptor complex and interacts with and presumably activate BSU1. BSU1 inactivates BIN2 by dephosphorylating its pTyr200, allowing accumulation of unphosphorylated BZR1/2, likely with help of a phosphatase that is yet to be identified. Unphosphorylated BZR1/2 accumulate in the nucleus and alter the expression of BR-target genes, leading to cellular and developmental responses. While individual representative protein is shown for each function, in Arabidopsis most of these components have about 2 to 5 homologous proteins (paralogs) that can contribute to the same or similar signaling function.
To test interaction of BSU1 with BIN2 or bin2-1 in vitro, a gel blot separating GST, GST-BIN2, GSTbin2-1 was incubated with 20 μg MBP-BSU1 in 5% non-fat dry milk/PBS buffer and washed four times. The blot was then probed with a polyclonal anti-MBP antibody. […]

nYFP-AtSK12 = biological target: T2, nYFP-AtSK12 (Arabidopsis, UniProt P43289 1-409); test: BiFC in Arabidopsis seedlings, epidermal cells
T2 construct: BiFC construct in transgenic Arabidopsis; not shown: N-terminal half of YFP (nYFP)
T2 sequence (looked up): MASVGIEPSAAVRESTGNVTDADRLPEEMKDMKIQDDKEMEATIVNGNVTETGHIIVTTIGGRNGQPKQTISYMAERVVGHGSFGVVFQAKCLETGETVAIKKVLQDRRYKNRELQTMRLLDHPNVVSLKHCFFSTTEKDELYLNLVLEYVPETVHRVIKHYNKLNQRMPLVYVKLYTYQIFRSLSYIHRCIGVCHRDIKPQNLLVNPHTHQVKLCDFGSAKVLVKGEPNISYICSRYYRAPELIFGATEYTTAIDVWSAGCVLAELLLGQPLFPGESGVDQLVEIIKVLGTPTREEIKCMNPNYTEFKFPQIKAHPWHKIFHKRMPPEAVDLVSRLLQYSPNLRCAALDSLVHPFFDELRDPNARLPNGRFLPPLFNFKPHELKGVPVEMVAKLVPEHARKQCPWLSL
Method: (§1) FIGS. 5A-5G show regulation of the BIN2 homolog, AtSK12 BSU1-mediated tyrosine dephosphorylation. […] Activation domain (AD) fused AtSKs were transformed into the cells containing DNA binding domain (BD) fused BZR1. Yeast clones were grown on Synthetic Dropout (SD) or SD-Histidine medium. […] Transgenic Arabidopsis plants expressing nYFP-BIN2, nYFP-AtSK12 and nYFP-AtSK12-cd (C-terminal 29 amino acid deletion) were crossed to BZR1-cYFP plants, respectively. The seedlings of F1 generation were grown in white light for 7 days and YFP signals of epidermal cells were observed. […] GST-AtSK12 was incubated with MBP-BZR1 and ³²P-γATP. CBB indicates Coomassie brilliant blue-stained gel. […] Homozygous plants expressing AtSK12-myc were treated with 0.25 MM BL for 30 min. Proteins immunoprecipitated by anti-myc antibodies were blotted onto nitrocellulose membrane and probed by anti-myc antibody. […] (h) BR induces pTyr dephosphorylation of AtSK12. Homozygous AtSK12-myc plants were pretreated with 10 μM MG132 and then treated with 0.25 μM BL (+BL) or mock solution (−BL). […]
(§2) Transformation by Agrobacterium infiltration, observations of subcellular localization and BiFC signal in tobacco or Arabidopsis were performed as described previously 5. Fluorescence of YFP was visualized by using a spinning-disk confocal microscope (Leica Microsystems, Heerbruag, Germany).

nYFP-BIN2 = biological target: T3, nYFP-BIN2 (Arabidopsis, UniProt Q39011 1-380); test: BiFC in Arabidopsis seedlings, epidermal cells
T3 construct: BiFC construct in transgenic Arabidopsis, crossed to BZR1-cYFP plants; not shown: N-terminal half of YFP (nYFP)
T3 sequence (looked up): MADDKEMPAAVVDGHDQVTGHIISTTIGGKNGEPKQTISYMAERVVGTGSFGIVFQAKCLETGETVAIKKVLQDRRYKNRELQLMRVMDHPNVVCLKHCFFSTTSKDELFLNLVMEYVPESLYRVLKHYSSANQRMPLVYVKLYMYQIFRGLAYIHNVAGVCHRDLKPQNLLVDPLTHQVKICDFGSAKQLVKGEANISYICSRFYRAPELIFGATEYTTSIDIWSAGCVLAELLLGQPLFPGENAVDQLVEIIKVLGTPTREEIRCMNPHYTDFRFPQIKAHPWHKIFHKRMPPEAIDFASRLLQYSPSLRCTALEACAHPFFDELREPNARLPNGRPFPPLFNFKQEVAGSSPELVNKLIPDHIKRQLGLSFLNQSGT
Method: as §1, §2

T1 sequence (Q9LR78 whole entry, the tested form may be a part): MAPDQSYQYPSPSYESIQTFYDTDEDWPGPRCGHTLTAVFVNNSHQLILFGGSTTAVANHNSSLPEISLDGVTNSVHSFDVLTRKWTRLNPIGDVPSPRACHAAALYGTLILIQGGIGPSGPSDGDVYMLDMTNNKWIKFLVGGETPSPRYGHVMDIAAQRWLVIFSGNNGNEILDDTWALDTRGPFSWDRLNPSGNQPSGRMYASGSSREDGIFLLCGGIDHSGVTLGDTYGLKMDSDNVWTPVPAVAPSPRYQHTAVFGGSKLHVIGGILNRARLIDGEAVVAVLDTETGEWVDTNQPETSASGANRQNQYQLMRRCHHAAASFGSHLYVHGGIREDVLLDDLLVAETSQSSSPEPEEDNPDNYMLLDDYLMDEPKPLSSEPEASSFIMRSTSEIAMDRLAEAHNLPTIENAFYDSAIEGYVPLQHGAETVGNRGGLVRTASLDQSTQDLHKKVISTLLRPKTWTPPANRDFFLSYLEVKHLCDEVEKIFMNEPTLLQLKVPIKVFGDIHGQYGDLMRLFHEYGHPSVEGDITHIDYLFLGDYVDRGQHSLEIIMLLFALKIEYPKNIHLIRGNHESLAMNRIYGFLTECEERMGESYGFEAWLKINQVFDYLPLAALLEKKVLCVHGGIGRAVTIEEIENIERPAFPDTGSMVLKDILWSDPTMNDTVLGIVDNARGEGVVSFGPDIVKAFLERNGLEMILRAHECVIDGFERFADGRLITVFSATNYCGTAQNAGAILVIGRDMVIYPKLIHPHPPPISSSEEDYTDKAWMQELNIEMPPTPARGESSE

- binding result (MBP-BSU1): binds
B1: GST-BSK1 phosphorylated by GST-BRI1-K (enzyme, Arabidopsis, UniProt Q944A7 1-512, looked up)
chain: MGCCQSLFSGDNPLGKDGVQPQPLSQNNHGGATTADNGGSGGASGVGGGGGGGGIPSFSEFSFADLKAATNNFSSDNIVSESGEKAPNLVYKGRLQNRRWIAVKKFTKMAWPEPKQFAEEAWGVGKLRHNRLANLIGYCCDGDERLLVAEFMPNDTLAKHLFHWENQTIEWAMRLRVGYYIAEALDYCSTEGRPLYHDLNAYRVLFDEDGDPRLSCFGLMKNSRDGKSYSTNLAYTPPEYLRNGRVTPESVTYSFGTVLLDLLSGKHIPPSHALDMIRGKNIILLMDSHLEGKFSTEEATVVVELASQCLQYEPRERPNTKDLVATLAPLQTKSDVPSYVMLGIKKQEEAPSTPQRPLSPLGEACSRMDLTAIHQILVMTHYRDDEGTNELSFQEWTQQMKDMLDARKRGDQSFREKDFKTAIDCYSQFIDVGTMVSPTVFGRRSLCYLLCDQPDAALRDAMQAQCVYPDWPTAFYMQSVALAKLNMNTDAADMLNEAAQLEEKRQRGGRGS
modifications: phosphorylated by BRI1 kinase domain in vitro; phospho-Ser230 as the site named
notes: GST-BSK1 incubated with GST-BRI1-K and 100 uM ATP for 2 hrs before SDS-PAGE; also called phosphorylated BSK1; not shown: GST (glutathione S-transferase) tag

- binding result (nYFP-AtSK12): binds
- binding result (nYFP-BIN2): binds
B2: BZR1-cYFP (other, Arabidopsis, UniProt Q8S307 1-336, looked up)
chain: MTSDGATSTSAAAAAAAAAAARRKPSWRERENNRRRERRRRAVAAKIYTGLRAQGDYNLPKHCDNNEVLKALCVEAGWVVEEDGTTYRKGCKPLPGEIAGTSSRVTPYSSQNQSPLSSAFQSPIPSYQVSPSSSSFPSPSRGEPNNNMSSTFFPFLRNGGIPSSLPSLRISNSCPVTPPVSSPTSKNPKPLPNWESIAKQSMAIAKQSMASFNYPFYAVSAPASPTHRHQFHTPATIPECDESDSSTVDSGHWISFQKFAQQQPFSASMVPTSPTFNLVKPAPQQMSPNTAAFQEIGQSSEFKFENSQVKPWEGERIHDVGMEDLELTLGNGKARG
notes: BiFC construct in transgenic Arabidopsis; not shown: C-terminal half of YFP (cYFP)

Source: patent publication US20120322150A1 (CARNEGIE INSTITUTION OF WASHINGTON, published 2012)
